Read-outs that look alike come from different tables or passages of the source.

In assay [1] the target is T1, GPR133 (ADGRD1) C-terminal fragment (CTF) with C-terminal TwinStrep tag, from C-terminally tagged wild-type … (human).
T1 chain: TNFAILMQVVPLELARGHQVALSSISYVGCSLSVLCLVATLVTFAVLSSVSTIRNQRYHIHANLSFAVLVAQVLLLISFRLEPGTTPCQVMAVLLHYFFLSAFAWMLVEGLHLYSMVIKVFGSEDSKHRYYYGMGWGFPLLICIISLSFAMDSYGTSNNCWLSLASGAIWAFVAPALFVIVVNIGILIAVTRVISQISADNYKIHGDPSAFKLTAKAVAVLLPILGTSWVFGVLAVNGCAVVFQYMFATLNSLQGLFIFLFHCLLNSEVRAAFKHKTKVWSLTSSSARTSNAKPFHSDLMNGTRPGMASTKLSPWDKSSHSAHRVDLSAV
The assay is described as follows: pull-down.

In assay [2] the target is T1, GPR133 (ADGRD1) C-terminal fragment …. The assay is described as follows: pull-down.

B1: GPR133 (ADGRD1) N-terminal fragment (NTF), from C-terminally TwinStrep-tagged wild-type GPR133 (domain or fragment, human)
chain: VYSRSQDHPGFQVLASASHYWPLENVDGIHELQDTTGDIVEGKVNKGIYLKEEKGVTLLYYGRYNSSCISKPEQCGPEGVTFSFFWKTQGEQSRPIPSAYGGQVISNGFKVCSSGGRGSVELYTRDNSMTWEASFSPPGPYWTHVLFTWKSKEGLKVYVNGTLSTSDPSGKVSRDYGESNVNLVIGSEQDQAKCYENGAFDEFIIWERALTPDEIAMYFTAAIGKHALLSSTLPSLFMTSTASPVMPTDAYHPIITNLTEERKTFQSPGVILSYLQNVSLSLPSKSLSEQTALNLTKTFLKAVGEILLLPGWIALSEDSAVVLSLIDTIDTVMGHVSSNLHGSTPQVTVEGSSAMAEFSVAKILPKTVNSSHYRFPAHGQSFIQIPHEAFHRHAWSTVVGLLYHSMHYYLNNIWPAHTKIAEAMHHQDCLLFATSHLISLEVSPPPTLSQNLSGSPLITVHLKHRLTRKQHSEATNSSNRVFVYCAFLDFSSGEGVWSNHGCALTRGNLTYSVCRCTHL
modifications: glycosylated (nine N-linked glycosylation sites predicted within the NTF; positions not given)
Take B1: the “NTF/CTF ratio in the elution (densitometry)” value in assay [1] worked out at 1; in assay [2] it was 0.17.

(Values after doi:10.1101/2020.12.08.415398 (bioRxiv, 2020).)
